Columns and labels:
Test in all cases: cryo-EM structure
Rsc3 = target: T1, Rsc3 (yeast, UniProt Q06639 1-885)
T1 sequence: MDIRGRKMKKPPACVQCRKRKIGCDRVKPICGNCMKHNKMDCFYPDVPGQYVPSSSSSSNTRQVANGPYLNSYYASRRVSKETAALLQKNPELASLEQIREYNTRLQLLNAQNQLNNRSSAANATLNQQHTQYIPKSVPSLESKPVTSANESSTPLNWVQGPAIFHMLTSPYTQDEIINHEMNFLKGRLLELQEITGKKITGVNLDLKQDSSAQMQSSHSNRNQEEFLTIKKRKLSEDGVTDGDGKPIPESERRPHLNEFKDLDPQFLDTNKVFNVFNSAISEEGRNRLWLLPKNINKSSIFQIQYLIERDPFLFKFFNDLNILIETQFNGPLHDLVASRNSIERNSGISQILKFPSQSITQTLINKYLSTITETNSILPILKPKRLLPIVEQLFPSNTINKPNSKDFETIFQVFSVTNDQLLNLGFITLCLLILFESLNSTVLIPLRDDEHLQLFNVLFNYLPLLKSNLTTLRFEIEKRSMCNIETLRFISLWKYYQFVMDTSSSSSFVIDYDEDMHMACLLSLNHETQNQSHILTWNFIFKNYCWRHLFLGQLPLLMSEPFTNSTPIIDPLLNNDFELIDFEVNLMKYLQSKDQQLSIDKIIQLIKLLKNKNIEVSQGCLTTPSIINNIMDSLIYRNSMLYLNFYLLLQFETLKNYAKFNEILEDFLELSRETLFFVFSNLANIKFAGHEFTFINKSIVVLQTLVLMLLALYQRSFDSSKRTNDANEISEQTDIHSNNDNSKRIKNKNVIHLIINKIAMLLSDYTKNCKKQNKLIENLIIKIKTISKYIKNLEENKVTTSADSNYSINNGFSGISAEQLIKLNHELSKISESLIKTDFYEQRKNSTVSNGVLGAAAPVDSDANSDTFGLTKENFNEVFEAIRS

Rsc30 = target: T2, Rsc30 (yeast, UniProt P38781 1-883)
T2 sequence: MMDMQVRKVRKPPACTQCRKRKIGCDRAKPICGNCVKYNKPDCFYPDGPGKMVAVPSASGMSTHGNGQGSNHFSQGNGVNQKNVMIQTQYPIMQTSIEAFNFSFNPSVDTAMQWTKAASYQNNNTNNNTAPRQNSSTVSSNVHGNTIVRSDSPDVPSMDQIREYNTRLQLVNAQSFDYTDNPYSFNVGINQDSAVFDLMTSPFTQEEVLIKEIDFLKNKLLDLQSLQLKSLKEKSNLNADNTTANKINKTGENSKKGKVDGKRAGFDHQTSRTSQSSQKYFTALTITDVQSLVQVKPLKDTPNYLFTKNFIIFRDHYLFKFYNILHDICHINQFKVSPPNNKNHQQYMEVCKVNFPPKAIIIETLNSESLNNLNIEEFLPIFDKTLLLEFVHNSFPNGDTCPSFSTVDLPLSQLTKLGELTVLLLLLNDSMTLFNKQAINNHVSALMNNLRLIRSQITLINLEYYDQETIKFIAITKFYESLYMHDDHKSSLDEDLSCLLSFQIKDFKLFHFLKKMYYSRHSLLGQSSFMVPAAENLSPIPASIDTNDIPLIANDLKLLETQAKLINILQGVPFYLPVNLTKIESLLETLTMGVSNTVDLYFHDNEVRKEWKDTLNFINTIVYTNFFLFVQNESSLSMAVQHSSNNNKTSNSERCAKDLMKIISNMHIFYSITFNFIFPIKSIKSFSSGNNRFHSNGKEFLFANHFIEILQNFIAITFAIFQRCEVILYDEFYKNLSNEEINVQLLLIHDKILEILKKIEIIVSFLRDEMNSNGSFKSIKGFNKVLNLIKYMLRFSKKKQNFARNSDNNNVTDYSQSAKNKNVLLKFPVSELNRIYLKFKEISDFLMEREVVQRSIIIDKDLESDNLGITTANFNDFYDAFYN

Sth1 = target: T3, Sth1 (yeast, UniProt P32597 1-1359)
T3 sequence: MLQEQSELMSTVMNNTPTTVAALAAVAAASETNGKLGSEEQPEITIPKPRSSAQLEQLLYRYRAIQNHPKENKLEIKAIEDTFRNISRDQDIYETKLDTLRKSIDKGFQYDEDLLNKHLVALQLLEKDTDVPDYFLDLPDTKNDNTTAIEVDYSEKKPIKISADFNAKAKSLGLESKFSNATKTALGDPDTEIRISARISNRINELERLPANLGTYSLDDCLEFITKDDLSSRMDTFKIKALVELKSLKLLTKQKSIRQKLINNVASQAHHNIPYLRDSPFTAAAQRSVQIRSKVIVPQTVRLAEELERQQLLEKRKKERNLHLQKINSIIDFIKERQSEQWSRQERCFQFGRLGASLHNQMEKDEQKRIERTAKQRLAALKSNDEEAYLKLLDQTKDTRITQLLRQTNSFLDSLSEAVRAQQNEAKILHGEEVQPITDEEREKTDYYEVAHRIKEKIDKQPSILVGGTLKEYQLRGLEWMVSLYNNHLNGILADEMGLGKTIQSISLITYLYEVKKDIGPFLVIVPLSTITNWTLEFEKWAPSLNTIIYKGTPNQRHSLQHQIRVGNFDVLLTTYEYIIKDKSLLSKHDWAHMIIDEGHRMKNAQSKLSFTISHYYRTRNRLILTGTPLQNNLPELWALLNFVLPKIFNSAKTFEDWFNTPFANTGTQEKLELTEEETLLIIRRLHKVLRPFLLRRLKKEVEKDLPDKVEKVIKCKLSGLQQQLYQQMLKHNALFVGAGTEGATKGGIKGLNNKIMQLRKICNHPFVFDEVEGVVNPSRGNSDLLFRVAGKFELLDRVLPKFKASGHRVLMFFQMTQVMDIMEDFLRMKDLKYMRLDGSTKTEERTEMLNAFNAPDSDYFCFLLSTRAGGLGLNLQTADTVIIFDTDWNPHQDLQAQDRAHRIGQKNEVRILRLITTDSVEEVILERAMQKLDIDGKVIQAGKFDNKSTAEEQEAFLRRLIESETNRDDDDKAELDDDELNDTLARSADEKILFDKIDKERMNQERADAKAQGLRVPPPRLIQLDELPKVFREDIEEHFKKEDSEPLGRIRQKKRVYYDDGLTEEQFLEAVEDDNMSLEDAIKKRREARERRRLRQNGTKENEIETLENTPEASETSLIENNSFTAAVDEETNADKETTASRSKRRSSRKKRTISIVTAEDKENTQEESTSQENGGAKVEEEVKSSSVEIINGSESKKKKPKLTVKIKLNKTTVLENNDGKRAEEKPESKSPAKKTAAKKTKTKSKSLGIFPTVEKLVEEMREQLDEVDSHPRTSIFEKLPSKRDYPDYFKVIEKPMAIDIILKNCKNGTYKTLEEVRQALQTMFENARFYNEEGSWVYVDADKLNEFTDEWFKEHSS

binding result (Rsc3): binds
binding result (Rsc30): binds
binding result (Sth1): binds
B1: Rsc9 (natural protein, yeast)
chain: MNSLASNTPLNGTPVSEAPATSSEPVNMFETMVANPIKVSRLQSNGVLTGPAANTKSIHYSLANFNVFQSLPKETARGVDDLTRMEMALLSGIPEEIKWSLKKYLTYSNKAPYMISLRTLPDLLPLFKTFILPLERIVEGLNKSSICDSKAMDSLQMGLNALLILRNLAQDTDSVQILVKDREIKSFILFILKKFQCVATGDNKWQLYEGNATFFNELTHYTLDLMEAISSYIAPAMKDDHYFQTLVSILNYTKDRYMVISILRSLSRLLVRSKANEESAADNLDHKTLSLIVSFLLLECDSELIIASLDFLYQYILPGSQRITELFKSKECSLILEATLPNLLSYNIATPDYHLLQKHKIRLIKRLKPPAPKEPPNLSEDLFQQLFKLNEPLRSTAWLRCCFEPVQEAEFTQISLWRSYESKFGQPVRESGRKLLPAVEFIKNVSNAFNNAAAIVITDPVTGKKRFVIKGIQPRFKALGIADGERESQVPISALKSKFLNDSKEITPARQNSIPEVKFPQELSDVSKVACTFLCLLSNDTDDGAGSAFCQRIRPLVLHKLADIPPLTLALSEYMENTSGL

Reference: paper PMC8442553 (Science (New York, N.Y.), 2019)
